Substrate: CCCCCCCCCCCC(=O)Oc1ccc([N+](=O)[O-])cc1
Test: purified protein
Assay type: biochemical, Bombus terrestris
Conditions: 50 mM Tris/HCl, pH 8.2, 25°C, p-NPL 0.05-0.4 mM added in 2-propanol

B1: lipase BT-1 (Bombus terrestris) (protein)
chain: VICDVEDTLHVSRKIRLKIYKGNSSYFSSTESMVMNPGNIADDILPDRDSILYIHGFLENTEAENVRVIIRAYLDKGDVNVIVLDWGEIAFNINYVYVSSQVVTIAKAVAESLKKLVDLIDLDTLHVIGHSLGAHIAGNIGRYANINLSRITGLDPALPLFYPSTCHVRSTDAEAVVILHTDGGFYGTATNTGTIDFYVNGGSSVQPGCPIIFGGEFCSHQRSTRIYAESLLNPKAFPAHKCLNEIADTEEVYFGDSTPKDIYGTYCFNTNAKPPYGKTI
notes: native, purified from labial gland (cephalic part) of 2- to 3-day-old males on octyl-agarose, Triton X-100 desorption; ~30 kDa on SDS-PAGE; identified by MS (18 peptides); catalytic triad Ser155, Asp179, His244
  Km: 1.1 ± 0.3 µM
  Vmax: 0.15 µmol/min/mg
